Measurements: patent US20170138946A1 (Memorial Sloan Kettering, published 2017)

Target: T1, Enhancer of zeste homolog 2 (EZH2) (human, UniProt Q15910 1-746, limits assumed)
T1 construct: Endogenous protein in SET2 cells
Experiment: co-immunoprecipitation of endogenous EZH2 and BAP1 in SET2 cells with Western blot, in presence of benzonase
Text: FIG. 13A-L. BAP1 depletion leads to an increase in PRC2 component expression, increased H4K20me1 and deubiquitination of L3MBTL2. (a) Co-immunoprecipitation of endogenous EZH2 and BAP1 in SET2 cells followed by Western blot analysis (performed in presence of benzonase to inhibit interactions dependent on DNA). (b) Bap1, Ezh2 and Suz12 expression by qRT-PCR from sorted granulocyte-macrophage progenitor (GMP; Lin⁻ c-Kit⁺Sca1⁻CD34′Fcγ⁺). (c) Western blot analysis of Bap1 and Ezh2 in bone marrow cells from Bap1 KO and control mice. (d) H4K20me1 quantification from histone mass spectrometry experiments. (e) Cell viability as assessed by Cell Titer Glo viability assay and (f) Annexin V assays for SETD8 overexpression experiments in BAP1 wild-type (MSTO-211H, Meso10) and mutant cell lines H226, deletion; H2452 catalytic mutation). (g) Quantitative qPCR for SETD8 and EZH2 in BAP1 mutant cells with SETD8 overexpression. (h) Western blot analysis for SETD8 and EZH2 in a BAP1 wild-type cell line. (i) Cell Titer Glo assay in cells treated with DMSO or 5, 10, 20 μM BVT594. (j) L3MBTL2 and BAP1 expression in BAP1 wild-type (Met5a, JMN) and mutant mesothelioma cell lines (H226, H2452, H28). (k) 293T cells overexpressing Myc-His tagged ubiquitin and L3MBTL2 cDNA and varying levels of BAP1 (0, 5 μg, 2.5 μg, 1 μg). […] Statistics were calculated with Student t-test; *p<0.05, **p<0.005; ±SEM values reported. […]

T1 sequence (Q15910 whole entry): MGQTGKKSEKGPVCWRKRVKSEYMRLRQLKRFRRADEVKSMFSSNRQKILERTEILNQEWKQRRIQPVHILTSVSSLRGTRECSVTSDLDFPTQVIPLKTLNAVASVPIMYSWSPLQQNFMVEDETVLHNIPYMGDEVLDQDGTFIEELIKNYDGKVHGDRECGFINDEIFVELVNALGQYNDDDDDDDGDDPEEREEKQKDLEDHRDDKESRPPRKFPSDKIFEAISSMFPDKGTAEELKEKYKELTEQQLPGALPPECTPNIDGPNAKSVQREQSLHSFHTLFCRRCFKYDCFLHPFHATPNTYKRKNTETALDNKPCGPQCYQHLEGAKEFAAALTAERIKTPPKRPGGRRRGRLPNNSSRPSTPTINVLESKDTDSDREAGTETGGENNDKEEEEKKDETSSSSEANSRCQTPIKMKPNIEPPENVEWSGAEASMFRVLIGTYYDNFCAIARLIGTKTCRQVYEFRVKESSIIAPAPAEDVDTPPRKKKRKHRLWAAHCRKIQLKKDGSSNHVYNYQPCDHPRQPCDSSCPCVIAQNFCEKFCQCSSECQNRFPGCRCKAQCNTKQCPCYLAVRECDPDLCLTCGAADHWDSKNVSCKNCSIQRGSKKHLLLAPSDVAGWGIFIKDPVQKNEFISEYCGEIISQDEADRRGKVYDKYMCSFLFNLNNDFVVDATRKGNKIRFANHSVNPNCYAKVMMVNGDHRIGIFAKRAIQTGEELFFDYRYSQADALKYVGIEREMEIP

B1: BRCA1 associated protein-1 (BAP1) (enzyme, human, UniProt Q92560 1-729, looked up)
chain: MNKGWLELESDPGLFTLLVEDFGVKGVQVEEIYDLQSKCQGPVYGFIFLFKWIEERRSRRKVSTLVDDTSVIDDDIVNNMFFAHQLIPNSCATHALLSVLLNCSSVDLGPTLSRMKDFTKGFSPESKGYAIGNAPELAKAHNSHARPEPRHLPEKQNGLSAVRTMEAFHFVSYVPITGRLFELDGLKVYPIDHGPWGEDEEWTDKARRVIMERIGLATAGEPYHDIRFNLMAVVPDRRIKYEARLHVLKVNRQTVLEALQQLIRVTQPELIQTHKSQESQLPEESKSASNKSPLVLEANRAPAASEGNHTDGAEEAAGSCAQAPSHSPPNKPKLVVKPPGSSLNGVHPNPTPIVQRLPAFLDNHNYAKSPMQEEEDLAAGVGRSRVPVRPPQQYSDDEDDYEDDEEDDVQNTNSALRYKGKGTGKPGALSGSADGQLSVLQPNTINVLAEKLKESQKDLSIPLSIKTSSGAGSPAVAVPTHSQPSPTPSNESTDTASEIGSAFNSPLRSPIRSANPTRPSSPVTSHISKVLFGEDDSLLRVDCIRYNRAVRDLGPVISTGLLHLAEDGVLSPLALTEGGKGSSPSIRPIQGSQGSSSPVEKEVVEATDSREKTGMVRPGEPLSGEKYSPKELLALLKCVEAEIANYEACLKEEVEKRKKFKIDDQRRTHNYDEFICTFISMLAQEGMLANLVEQNISVRRRQGVSIGRLHKQRKPDRRKRSRPYKAKRQ
notes: Immunoprecipitated from cell lysates; It is endogenous in the human leukemia line SET2
binding result: no binding
